Test results: the DeepSol protein solubility set

assay: soluble on expression in E. coli; label from the status in PepcDB or PDB records

| Sequence | soluble on expression in E. coli |
| --- | --- |
| MGSDKIHHHHHHMPTLTEIGNDQLTVQISSLGAEMQSLRTKDGQSLLWHGDAAYWGGRSPILFPIVGKAKDDTLLIDGKPYSMAQHGIARRREFTLLEAGADVCRHELTAGDETKAAYPFDFSLVLEHRLHGAALTVAATVSNRSDTPMPYGLGFHPAFLWPLPGAEGKPHTITLENGAEPPLLRLGGGLLAEEARPSPFHAGRLVLDKSQFEEDAMIFPEGAGTELTYRAEDAASLHFHFENLPNLALWQKPGAPFICIEPWHGMAARHGKSGELTERPYTVILAPGDSARHGFTVTVEA | not soluble |
| MGSDKIHHHHHHMDVFSDRVLLTEESPIRKLVPFAEMAKKRGVRIHHLNIGQPDLKTPEVFFERIYENKPEVVYYSHSAGIWELREAFASYYKRRQRVDVKPENVLVTNGGSEAILFSFAVIANPGDEILVLEPFYANYNAFAKIAGVKLIPVTRRMEEGFAIPQNLESFINERTKGIVLSNPCNPTGVVYGKDEMRYLVEIAERHGLFLIVDEVYSEIVFRGEFASALSIESDKVVVIDSVSKKFSACGARVGCLITRNEELISHAMKLAQGRLAPPLLEQIGSVGLLNLDDSFFDFVRETYRERVETVLKKLEEHGLKRFTKPSGAFYITAELPVEDAEEFARWMLTDFNMDGETTMVAPLRGFYLTPGLGKKEIRIACVLEKDLLSRAIDVLMEGLKMFCSSRISC | soluble |
| MGSDKIHHHHHHVEPRSLRSRRSSSYYCGELIKADFSQRREFVMRNSLRRWKNEKLAQKLKKVFESKSVRVIYLPDIEMVVEEVHKLIPDGATVSSGGSVTLQETGVMDLLRSGKYEFLDRDSVSEDKERRKIMIKAFESDYYLCSANAITENGEILLLDGSGNRAAAVTFGPEKVIFVAGINKVVEDLDAGIKRIKSIAPMNAKRLNLHTPCATTGFCSDCSSEERICEMYSIIIDSRRRPWRYTIVLIGEELGL | not soluble |
| MPPANGKKGKKGGAAKAAAPEEDFDAILAEMQLADAKTAAKEATKKDAKGGKGKANGSAAATAAPEEAKQAWQAEIAAMKPIDEQFPDGKFPHGIDESPYYLKGKDGRVATDRESNEEKKALDISYEEVWQDYRRSAEAHRQVRKYVKSWIKPGMTMIEICERLETTSRRLIKEQGLEAGLAFPTGCSLNHCAAHYTPNAGDTTVLQYGDVCKIDYGIHVRGRLIDSAFTVHFDPKFDPLVEAVREATNAGIKESGIDVRLCDVGEIVEEVMTSHEVELDGKSYVVKPIRNLNGHSIAQYRIHAGKTVPIVKGGEQTKMEENEIYAIETFGSTGKGYVHDDMETSHYMKNFELADEKIPLRLQKSKGLLNLIDKNFATLAFCRRWIDRLGETKYLMALKDLCDKGIVDPYPPLCDVKGCYTAQWEHTILMRPTVKEVVSRGDDY | not soluble |
| MGSDKIHHHHHHMWFRNLLVYRLTQDLQLDADSLEKALGEKSARPCASQELTTYGFTAPFGKGPDAPLVHVSQDFFLISARKEERILPGSVVRDALKEKVDEIEAQQMRKVYKKERDQLKDEIVQTLLPRAFIRRSSTFAAIAPSLGLILVDSASAKKAEDLLSTLREALGSLPVRPLSVKVAPTATLTDWVKTQEAAGDFHVLDECELRDTHEDGGVVRCKRQDLTSEEIQLHLTAGKLVTQLSLAWSDKLSFVLDDKLAVKRLRFEDLLQEQAEKDGGEDALGQLDASFTLMMLTFAEFLPALFEALGGEEIPQGV | not soluble |
| MGSDKIHHHHHHMSNQRYMMRGVSASKEDVHNAIKNIDKGIFPKAFCKIIPDILGGDPEYCNIMHADGAGTKSSLAYMYWKETGDLSVWKGIAQDALIMNIDDLLCVGAVDNILVSSTIGRNKLLIPGEVISAIINGTDELLAELREMGVGVYATGGETADVGDLVRTIIVDSTVTCRMKRSDVINNANIRPGDVIVGLASYGQATYEKEYNGGMGSNGLTSARHDVFGKYLAEKYPESYDAAVPEELVYSGGLKLTDTVEDSPIDAGKLVLSPTRTYAPVVKKLLDTLRPEIHGMVHCSGGAQTKVLHFVENVRVVKDNLFPVPPLFKTIQEQSGTDWAEMYKVFNMGHRLEVYLSPEHAEEVIAISESFGIPAQIVGRIEACDQTELIIKSEFGEFRY | not soluble |
| MSLTRFSVSPGDPMKKFVTLALTLSTLGASVASAQAVRVGMAYDAGGKADKSFNQSAYEGSQLAAKKLGIQVKDFEPSDPSQIIQGVRSFAKEGFDLTIGVGFSNNASITQVAKENPDLYFGLVDDVSTAKNVASLVFNEEQGSYLVGYLAAMNSSTGVVGFIGGMNIPLIHKFEAGYRAGVKAANPKATIISQYVGNTPEAWNNPGKAKEIAANMRGRGADIIFAAAGGSGNGLIDYIKQTPCLNASQLPKGVTFKSDNFKNVKKSAAYAKACTGNTRPMFFIGVDSNQNYLGDFDKNPATLNHGLTSMVKRVDNAVYALINEVKNDKFKAGERRFGLKDGGVAYAVDQYNKALLPAAQIAKVEAVKQQIIKGQIKVPTKEGGSHHHHHH | soluble |
| MTDEIISYQKAKLAKNLAISTASKWLFVHSSTGGSATNLSIAQYATLINGIQSAIKCQVILTAGKGERERAVELAEKLTDQNVVIYDKNDGLADFTRSLACADLFIAGSTGPLHIAGGLNIPTVGFYPSRLSATPRRWRPINQVDKHLAFCPPSGKQCEMDLTLISIEQALTSVIPFIKKMWQLSLEHHHHHH | soluble |
| MVSEEEEEEDGDAEETQDSEDDEEDEMEEDDDDSDYPEEMEDDDDDASYCTESSFRSHSTYSSTPGRRKPRVHRPRSPILEEKDIPPLEFPKSSEDLMVPNEHIMNVIAIYEVLRNFGTVLRLSPFRFEDFCAALVSQEQCTLMAEMHVVLLKAVLREEDTSNTTFGPADLKDSVNSTLYFIDGMTWPEVLRVYCES | not soluble |
| MPYIEKLELKGFKSYGNKKVVIPFSKGFTAIVGANGSGKSNIGDAILFVLGGLSAKAMRASRISDLIFAGSKNEPPAKYAEVAIYFNNEDRGFPIDEDEVVIRRRVYPDGRSSYWLNGRRATRSEILDILTAAMISPDGYNIVLQGDITKFIKMSPLERRLLIDDISGIAEYDSKKEKALEE | soluble |
| MSEELSGVIIVLHKELSCRKEITDLQEISIALPDLMLSPKSKIVSDPASSKIDLNDRTTCSAEPNLFFVIFLSKNLNFSSKVFLSAVNNKSFSIQTRIT | not soluble |
| MDGEKSGNRELYTKRVYEYDQVINQVLKHEENILSLIKKDTFGAAYKRLVLADEMIYLATLYLAKFRLSVALLGGKNENILNEARKTLYKPIIYLEEIVTDLIDAPFSEYEEGVDRISKITEKQRYYLIRKLGLVINLVIDAYGENTKWRWSFIDIEARFAVVAKNIMDLKEISQTGLNPHAEDYDTVIYHLRLVKKLFTKAADKYREKYEIVTNNISDFRTAILFLEGLRRVHMVLNEHREVEEIKRKIEIWKDKMEKDLKQKDKPKK | not soluble |
| MSLKTKQEIVENWLPRYTQRQLIDFEPYILLTNFSHYLHVFAEHYGVPIVGEHTSMPNASAEGVTLINFGMGSANAATIMDLLWAIHPKAVIFLGKCGGLKLENALGDYLLPIAAIRGEGTSNDYLPEEVPSLPSFSVLRAISSAIQNKGKDYWTGTVYTTNRRVWEYDEKFKDYLRSTHASGVDMETATLMTVGFANKIPMGALLLISDRPMFPEGVKTEESDQLVTDNFAEEHLMLGIDALEIIRENKSSIKHIRFNWEGHHHHHH | soluble |
| MASAHQTPADANGGESRDEILRAAAELFMEFGYAATSIDAVAQRLGSTKGRIYHHYRSKADLFFDVQVTAMNRLTAQVEPLAREGGGAVGRLAAMALRHTQILLKEMPMQKVAVQGLERHLLEASSAAKRLRAVVKMRDDYEQMFVEVIDDGIREGSFVDLPPRLLSKPFFGALNWATVWYSQRRLQSEEAIDDIAHALAAYALRGLLKDSNDEAARETALFRYDLG | not soluble |
| MIIVRLCGGLGNQMFQYAAGLAAAHRIGSEVKFDTHWFDATCLHQGLELRRVFGLELPEPSSKDLRKVLGACVHPAVRRLLSRRLLRALRPKSLVIQPHFHYWTGFEHLTDNVYLEGYWQSERYFSNIADIIRQQFRFVEPLDPHNAALMDEMQSGVSVSLHIRRGDYFNNPQMRRVHGVDLSEYYPAAVATMIEKTNAERFYVFSDDPQWVLEHLKLPVSYTVVDHNRGAASYRDMQLMSACRHHIIANSTFSWWGAWLNPRPDKVVIAPRHWFNVDVFDTRDLYCPEWIVLLEHHHHHH | soluble |
| MDPRGTKRGAEKTEVAEPRNKLPRPAPSLPTDPALYSGPFPFYRRPSELGCFSLDAQRQYHGDARALRYYSPPPTNGPGPNFDLRDGYPDRYQPRDEEVQERLDHLLCWLLEHRGRLEGGPGWLAEAIVTWRGHLTKLLTTPYERQEGWQLAASRFQGTLYLSEVETPNARAQRLARPPLLRELMYMGYKFEQYMCAGELPLLHSPLPLPRG | not soluble |
